Test results published in patent US20220411483A1 (Chugai, published 2022).
Positions count from the first letter of the chain named.

B1: IL6R-P555/IL6R-L (antibody, human IgG1, kappa)
heavy: QVQLQESGPGLVKPSETLSLTCAVSGHSISHDHAWSWVRQPPGEGLEWIGFISYSGITNYNPSLQGRVTISRDNSKNTLYLQMNSLRAEDTAVYYCARSLARTTAMDYWGEGTLVTVSSASTKGPSVFPLAPSSKSTSGGTAALGCLVKDYFPEPVTVSWNSGALTSGVHTFPAVLQSSGLYSLSSVVTVPSSSLGTQTYICNVNHKPSNTKVDKKVEPKSCDKTHTCPPCPAPELLGDDSVFLFPPKPKDTLMISRTPEVTCVVVDVSDEDGEVKFNWYVDGVEVHNAKTKPREEQYNSTYRVVSVLTVLHQDWLNGKEYKCKVSNKALPAPIEKTISKAKGQPREPQVYTLPPSRDELTKNQVSLTCLVKGFYPSDIAVEWESNGQPENNYKTTPPVLDSDGSFFLYSKLTVDKSRWQQGNVFSCSVMHEALHNHYTQKSLSLSP
light: not shown
B2: IL6R-P556/IL6R-L (antibody, human IgG1, kappa)
heavy: B1 heavy with E235D
light: not shown
B3: IL6R-P559/IL6R-L (antibody, human IgG1, kappa)
heavy: B1 heavy with D270E
light: not shown
B4: IL6R-P562/IL6R-L (antibody, human IgG1, kappa)
heavy: B1 heavy with E235D, D270E
light: not shown
B5: IL6R-P785/IL6R-L (antibody, human IgG1, kappa)
heavy: B1 heavy with E235D, D239G, D270H, G273P, S300A, A329G, A332S, P333S
light: not shown
B6: IL6R-P786/IL6R-L (antibody, human IgG1, kappa)
heavy: B1 heavy with D270H, G273P, S300A, A329G, A332S, P333S
light: not shown
B7: IL6R-P787/IL6R-L (antibody, human IgG1, kappa)
heavy: B1 heavy with E235D, D270H, G273P, S300A, A329G, A332S, P333S
light: not shown
B8: IL6R-P774/IL6R-L (antibody, human IgG1, kappa)
heavy: B1 heavy with D239G, S269A, D270E, K324E
light: not shown
B9: IL6R-P775/IL6R-L (antibody, human IgG1, kappa)
heavy: B1 heavy with D239G, D270H, K324A
light: not shown
B10: IL6R-P776/IL6R-L (antibody, human IgG1, kappa)
heavy: B1 heavy with D239G, D270H, K324E
light: not shown
B11: IL6R-P777/IL6R-L (antibody, human IgG1, kappa)
heavy: B1 heavy with E235D, D239G, V266I, S269A, D270E, K324A
light: not shown
B12: IL6R-P778/IL6R-L (antibody, human IgG1, kappa)
heavy: B1 heavy with E235D, D239G, V266I, S269A, D270E, K324E
light: not shown
notes: also called IL6B-P778/IL6R-L
B13: IL6R-P779/IL6R-L (antibody, human IgG1, kappa)
heavy: B1 heavy with D239G, V266I, S269A, D270E, K324A
light: not shown
B14: IL6R-P780/IL6R-L (antibody, human IgG1, kappa)
heavy: B1 heavy with D239G, V266I, S269A, D270E, K324E
light: not shown
B15: IL6R-P781/IL6R-L (antibody, human IgG1, kappa)
heavy: B1 heavy with D239G, D270H, G273P, S300A, A329G, A332S, P333S
light: not shown
B16: IL6R-P782/IL6R-L (antibody, human IgG1, kappa)
heavy: B1 heavy with E235D, D239G, D270H, G273P, A329G, A332S, P333S
light: not shown
B17: IL6R-P783/IL6R-L (antibody, human IgG1, kappa)
heavy: B1 heavy with D270H, G273P, A329G, A332S, P333S
light: not shown
B18: IL6R-P784/IL6R-L (antibody, human IgG1, kappa)
heavy: B1 heavy with E235D, D270H, G273P, A329G, A332S, P333S
light: not shown
B19: IL6R-P785/IL6R-L (antibody, human IgG1, kappa)
heavy: B1 heavy with E235D, D239G, D270H, G273P, S300A, A329G, A332S, P333S
light: not shown
B20: IL6R-P786/IL6R-L (antibody, human IgG1, kappa)
heavy: B1 heavy with D270H, G273P, S300A, A329G, A332S, P333S
light: not shown
B21: IL6R-P787/IL6R-L (antibody, human IgG1, kappa)
heavy: B1 heavy with E235D, D270H, G273P, S300A, A329G, A332S, P333S
light: not shown

Each binder was assayed against T1, human FcγRIa extracellular domain with C-terminal His tag (human, UniProt P12314 16-292) (assay: SPR, antibody captured, FcgR analyte).
T1 construct: Whole entry named; also called FcgRIa
T1 sequence (P12314 16-292): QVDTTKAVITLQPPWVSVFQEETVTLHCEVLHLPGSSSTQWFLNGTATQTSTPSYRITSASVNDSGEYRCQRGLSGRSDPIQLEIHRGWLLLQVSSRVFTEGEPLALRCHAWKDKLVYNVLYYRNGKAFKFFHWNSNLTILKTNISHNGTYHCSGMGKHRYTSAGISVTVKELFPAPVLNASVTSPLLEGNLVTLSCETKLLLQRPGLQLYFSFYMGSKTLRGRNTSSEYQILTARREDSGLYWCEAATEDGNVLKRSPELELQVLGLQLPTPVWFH

Binder | Kd
B1 | 11 nM
B2 | 3.7 nM
B3 | 9.1 nM
B4 | 4.2 nM
B5 | 23 nM
B6 | 120 nM
B7 | 56 nM

What follows are binders tested against T2, human FcγRIIa R type extracellular domain with C-terminal His tag (human, UniProt P12318 34-217) (assay: SPR, antibody captured, FcgR analyte).
T2 construct: extracellular domain; also called FcgRIIaR
T2 sequence (looked up): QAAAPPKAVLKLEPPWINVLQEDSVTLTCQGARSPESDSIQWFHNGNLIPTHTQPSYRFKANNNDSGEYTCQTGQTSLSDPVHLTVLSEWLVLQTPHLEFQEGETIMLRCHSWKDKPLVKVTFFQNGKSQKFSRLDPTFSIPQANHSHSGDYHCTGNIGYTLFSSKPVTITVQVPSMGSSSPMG

Binder | Kd
B1 | 2800 nM
B2 | 2400 nM
B3 | 2400 nM
B4 | 2000 nM

The binders below were run against T3, human FcγRIIb extracellular domain with C-terminal His tag (human, UniProt P31994 43-217) (assay: SPR, antibody captured, FcgR analyte).
T3 construct: extracellular domain; also called FcgRIIb
T3 sequence (looked up): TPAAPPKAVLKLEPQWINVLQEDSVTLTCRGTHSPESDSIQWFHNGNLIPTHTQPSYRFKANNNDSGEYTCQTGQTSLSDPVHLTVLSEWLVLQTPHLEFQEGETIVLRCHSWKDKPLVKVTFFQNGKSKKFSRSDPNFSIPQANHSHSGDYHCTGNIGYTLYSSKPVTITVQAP

Binder | Kd
B1 | 210 nM
B2 | 180 nM
B3 | 140 nM
B4 | 130 nM
B5 | 7900 nM
B6 | 8500 nM
B7 | 4600 nM

What follows are binders tested against T4, FcgRIIaR (human, UniProt P12318 34-217) (assay: SPR, amount bound per captured antibody).
T4 construct: extracellular domain; also called FcγRIIa R type; FcγRIIa (R type)
T4 sequence (looked up): T2 sequence (looked up)

Binder | Relative FcgRIIaR-binding Activity
B8 | 98.8 IL6R-G1d/IL6R-L=100
B9 | 64.2 IL6R-G1d/IL6R-L=100
B10 | 77.4 IL6R-G1d/IL6R-L=100
B11 | 97.5 IL6R-G1d/IL6R-L=100
B12 | 105 IL6R-G1d/IL6R-L=100
B13 | 96 IL6R-G1d/IL6R-L=100
B14 | 101 IL6R-G1d/IL6R-L=100
B15 | 7.8 IL6R-G1d/IL6R-L=100
B16 | 14.2 IL6R-G1d/IL6R-L=100
B17 | 20.5 IL6R-G1d/IL6R-L=100
B18 | 28.6 IL6R-G1d/IL6R-L=100
B19 | 9.1 IL6R-G1d/IL6R-L=100
B20 | 11.5 IL6R-G1d/IL6R-L=100
B21 | 14.7 IL6R-G1d/IL6R-L=100

The binders below were run against T5, FcgRIIb (human, UniProt P31994 43-217) (assay: SPR, amount bound per captured antibody).
T5 construct: extracellular domain; also called FcγRIIb
T5 sequence (looked up): T3 sequence (looked up)

Binder | Relative FcgRIIb-binding Activity
B8 | 200 IL6R-G1d/IL6R-L=100
B9 | 180 IL6R-G1d/IL6R-L=100
B10 | 190 IL6R-G1d/IL6R-L=100
B11 | 198 IL6R-G1d/IL6R-L=100
B12 | 198 IL6R-G1d/IL6R-L=100
B13 | 201 IL6R-G1d/IL6R-L=100
B14 | 200 IL6R-G1d/IL6R-L=100
B15 | 51.1 IL6R-G1d/IL6R-L=100
B16 | 95.1 IL6R-G1d/IL6R-L=100
B17 | 97.9 IL6R-G1d/IL6R-L=100
B18 | 118 IL6R-G1d/IL6R-L=100
B19 | 58.4 IL6R-G1d/IL6R-L=100
B20 | 62.4 IL6R-G1d/IL6R-L=100
B21 | 84 IL6R-G1d/IL6R-L=100

These binders were tested against T6, human complement C1q (human, UniProt P02745 23-245; P02746 28-253; P02747 29-245) (assay: SPR, C1q bound per antibody captured on Protein L).
T6 construct: Bought (PROSPEC or Calbiochem); also called human C1q
T6 sequence (P02745 23-245 limits assumed, chain 1 of 3): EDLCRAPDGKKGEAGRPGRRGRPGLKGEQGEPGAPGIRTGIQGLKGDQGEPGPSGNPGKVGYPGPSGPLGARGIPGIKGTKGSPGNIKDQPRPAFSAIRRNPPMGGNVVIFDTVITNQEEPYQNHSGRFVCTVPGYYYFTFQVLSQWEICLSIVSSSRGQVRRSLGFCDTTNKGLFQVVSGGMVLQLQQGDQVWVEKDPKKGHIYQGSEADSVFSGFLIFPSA
T6 sequence (P02746 28-253 limits assumed, chain 2 of 3): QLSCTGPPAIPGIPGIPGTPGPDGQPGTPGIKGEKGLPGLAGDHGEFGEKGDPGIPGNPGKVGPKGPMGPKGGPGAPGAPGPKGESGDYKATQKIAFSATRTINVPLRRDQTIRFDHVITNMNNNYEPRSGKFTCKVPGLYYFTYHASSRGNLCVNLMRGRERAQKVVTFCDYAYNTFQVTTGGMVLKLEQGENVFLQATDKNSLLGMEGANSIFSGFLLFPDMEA
T6 sequence (P02747 29-245 limits assumed, chain 3 of 3): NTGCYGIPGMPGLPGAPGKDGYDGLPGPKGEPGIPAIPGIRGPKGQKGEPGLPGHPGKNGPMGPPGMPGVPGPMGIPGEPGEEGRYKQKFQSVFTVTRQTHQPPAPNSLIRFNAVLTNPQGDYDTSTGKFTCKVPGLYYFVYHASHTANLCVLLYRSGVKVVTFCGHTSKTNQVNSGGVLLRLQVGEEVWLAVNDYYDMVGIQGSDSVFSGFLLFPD
Method: The interaction between an antibody and human C1q was analyzed using Biacore T200 (GE Healthcare). HBS-EP+ (GE Healthcare) was used as the running buffer, and the measurement temperature was set at 25° C. Chips produced by immobilizing Protein L (ACTIGEN or BioVision) onto Series S sensor Chip CM4 (GE Healthcare) by amine coupling were used.
The antibodies of interest were captured onto these sensor chips, and allowed to interact with human complement C1q (PROSPEC or Calbiochem) diluted in the running buffer. The amount of antibody binding was determined, and comparisons were made among the antibodies. However, since the amount of C1q bound depends on the amount of captured antibodies, corrected values obtained by dividing the amount of C1q bound by the amount of each antibody captured were compared. Furthermore, by reaction with 10 mM glycine-HCl, pH 1.5, the antibodies captured onto the sensor chips were washed, and the sensor chips were recycled and reused.

Binder | Amount of C1q-binding when that for G1d is Defined as 100
B8 | 15.2 G1d=100
B9 | 21.8 G1d=100
B10 | 0.7 G1d=100
B11 | 12.4 G1d=100
B12 | 23.9 G1d=100
B13 | 0.8 G1d=100
B14 | 12.9 G1d=100
B15 | 24 G1d=100
B16 | 1.3 G1d=100
B17 | 13.3 G1d=100
B18 | 24.2 G1d=100
B19 | 1.3 G1d=100
B20 | 12.9 G1d=100
B21 | 24 G1d=100

These binders were tested against T1, human FcγRIa extracellular domain with … (assay: SPR, KD of IL6R-G1d/IL6R-L divided by KD of variant).

Binder | Relative FcgRIa-binding Activity
B1 | 0.029
B2 | 0.086
B3 | 0.035
B4 | 0.076
B5 | 0.014
B6 | 0.003
B7 | 0.006

The binders below were run against T2, human FcγRIIa R type extracellular … in the same assay as above.

Binder | Relative FcgRIIaR-binding Activity
B1 | 0.39
B2 | 0.46
B3 | 0.46
B4 | 0.55
B5 | 0.01
B6 | 0.02
B7 | 0.02

What follows are binders tested against T7, human FcγRIIa H type extracellular domain with C-terminal His tag (human, UniProt P12318 34-217) in the same assay as above.
T7 construct: extracellular domain; also called FcgRIIaH
T7 sequence (looked up): T2 sequence (looked up) with R134H

Binder | Relative FcgRIIaH-binding Activity
B1 | 0.021
B2 | 0.019
B3 | 0.021
B4 | 0.022
B5 | 0.007
B6 | 0.006
B7 | 0.007

Each binder was assayed against T3, human FcγRIIb extracellular domain with … in the same assay as above.

Binder | Relative FcgRIIb-binding Activity
B1 | 10
B2 | 11.7
B3 | 15
B4 | 16.2
B5 | 0.3
B6 | 0.2
B7 | 0.5

What follows are binders tested against T8, human FcγRIIIa V type extracellular domain with C-terminal His tag (human, UniProt P08637 17-208) in the same assay as above.
T8 construct: extracellular domain; also called FcgRIIIaV
T8 sequence (P08637 17-208 F176V): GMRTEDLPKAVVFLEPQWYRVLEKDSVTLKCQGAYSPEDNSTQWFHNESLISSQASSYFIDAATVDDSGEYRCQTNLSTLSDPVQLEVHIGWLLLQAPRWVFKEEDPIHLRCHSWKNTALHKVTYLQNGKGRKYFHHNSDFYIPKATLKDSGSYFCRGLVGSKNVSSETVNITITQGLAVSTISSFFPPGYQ

Binder | Relative FcgRIIIaV-binding Activity
B1 | 0.009
B2 | 0.007
B3 | 0.009
B4 | 0.007
B5 | 0.009
B6 | 0.01
B7 | 0.01
